Test [1] has as its target T1, CD79b on Ramos cells and on endogenous B cells of human PBMCs (human, UniProt P40259 29-229).
T1 construct: whole, on cells; also called Ramos cells (CD79b+); hCD79b
T1 sequence (looked up): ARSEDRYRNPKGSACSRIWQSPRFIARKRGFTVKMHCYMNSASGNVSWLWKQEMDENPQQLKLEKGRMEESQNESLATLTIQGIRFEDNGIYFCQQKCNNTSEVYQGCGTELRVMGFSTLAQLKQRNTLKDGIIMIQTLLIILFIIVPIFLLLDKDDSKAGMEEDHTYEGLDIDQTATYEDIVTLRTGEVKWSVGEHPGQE
Kind of test: flow cytometry on Ramos cells (CD79b+), anti-human IgG PE, MFI (PE).
Experimental: Binding abilities of CD79b/CLEC5A bispecific antibodies to Ramos cells (CD79b+) were evaluated. […] For analysis, the mean fluorescence intensity (MFI of PE) of each antibody was determined and plotted using GraphPad Prism software (Version 9.4.1; GraphPad Software Inc.).

The target of test [2] is T1, CD79b on Ramos cells and on endogenous …. Kind of test: cell-based or functional assay.
Test [3] shares this target. In words: cell-based or functional assay. The source holds these as a separate data set.
Test [4] shares this target. Kind of test: cell-based or functional assay. This is another data set of the same source.
The target is the same in test [5]. In words: cell-based or functional assay. The source holds these as a separate data set.

B1: CD79b/5C7 (2+2 A) Fc-optimized (bispecific antibody, human IgG1, kappa)
heavy: EQQLVETGGGLIQPGGSLRLSCAASGFTINIDYWISWVRQAPGKGLEWIGIIDPGDGTTYFAIWVSGRFTISFDNSKNTVYLQMNSLRAEDTAVYFCVREFSASAYQYDLWGPGTLVTVSSASTKGPSVFPLAPSSKSTSGGTAALGCLVKDYFPEPVTVSWNSGALTSGVHTFPAVLQSSGLYSLSSVVTVPSSSLGTQTYICNVNHKPSNTKVDKKVEPKSCDKTHTCPPCPAPELLAGPSVFLFPPKPKDTLMISRTPEVTCVVVDVSHEDPEVKFNWYVDGVEVHNAKTKPREEQYNSTYRVVSVLTVLHQDWLNGKEYKCKVSNKALPLPEEKTISKAKGQPREPQVYTLPPSRDELTKNQVSLTCLVKGFYPSDIAVEWESNGQPENNYKTTPPVLDSDGSFFLYSKLTVDKSRWQQGNVFSCSVMHEALHNHYTQKSLSLSPGK
light: ELVMTQSPATLSVSPGERATLSCRASEDIENYLAWYQQKPGQPPRLLIYRASTLSSGVPARFSGSGSGTEFTLTISSLQSEDFAVYYCQQGYRNSNVDNPFGGGTKVEIKRTVAAPSVFIFPPSDEQLKSGTASVVCLLNNFYPREAKVQWKVDNALQSGNSQESVTEQDSKDSTYSLSSTLTLSKADYEKHKVYACEVTHQGLSSPVTKSFNRGECGGGGSGGGGSGGGGSDIQMTQSPSSLSASVGDRVTITCQASESVDRNNRLAWFQQKPGKPPKLLIYTTSTLASGVPSRFSGSGSGTDFTLTISSLQPEDVATYYCAGYRGAHTDGDAFGCGTKVEIKGGGGSGGGGSGGGGSGGGGSEQQLVESGGGLVKPGGSLRLSCAASGFSFSRSSYMCWVRQAPGKCLEWIGCLSVGDGHTYYASWAKGRFTISKDSAKNSVYLQMNSLRAEDTAVYFCARAPSYSGDGGHGYDLWGPGTLVTVSS
With B1, in test [1], the “EC50 (read off the curve)” value is approximately 900 pM. In addition, in test [2], the “IC50 (nM), Ramos cell killing by M2 macrophages, Donor 100” value was 0.001 nM and the “IC50 (nM), Ramos cell killing by M2 macrophages, Donor 233” value is 0.003 nM. The “IC50 (nM), killing of endogenous B cells by PBMCs, Donor 234” value in test [3] is 0.0154 nM. The “IC50 (nM), Ramos cell killing by PBMCs (test 2), Donor 234” value in test [4] was 0.0675 nM. Also, in test [5], the “IC50 (nM), Ramos cell killing by M0 macrophages, Donor 100” value amounted to 0.002 nM; the “IC50 (nM), Ramos cell killing by M0 macrophages, Donor 159” value was determined as 0.001 nM; the “IC50 (nM), Ramos cell killing by M0 macrophages, Donor 161” value was found to be 0.0013 nM; the “IC50 (nM), Ramos cell killing by M0 macrophages, Donor 233” value was 0.002 nM.

These data come from patent publication US20260201033A1 (LTZ THERAPEUTICS, published 2026).
